Test results reported in US20130039923A1 (Novo Nordisk, published 2013).
Where a chain is given by its changes, count along the chain named. Ends that are not written are not given here.

How the values were obtained:
[1] = target: T1, Peptide no. 4 (Figures 7A, 7B) (N-terminus acylated); assay: array of terminally truncated, acylated hIL20 peptides on cellulose; fluorescein-labelled antibody; fluorescence as OD
T1 construct: peptide array on cellulose
T1 peptide: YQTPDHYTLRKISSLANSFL
Description: (§1) The screenings were done using fluorescence labelled antibodies. The labelling was done by gel-filtering the antibody stock against 1% NaHCO3, using NAP5 column (GE Healthcare according the manual from manufacturer. This was followed by adding 25 mole equivalents of 5(6)-carboxyfluorescein N-hydroxysuccinimide ester (Sigma, C1609) dissolved in DMSO. The coupling was allowed to continue for 2 hours followed by a gelfiltration against TRIS washing buffer (50 mM TRIS, pH=7.4, 0.15M NaCl, 0.1 M ArgHCl, 0.05% Tween 20) in order to removed uncoupled fluorescein.
(§2) Screening of arrays were done by adding 10 μl of antibody to 30 ml incubation buffer (0.5% BSA, 50 mM TRIS, pH=7.4, 0.15M NaCl, 0.1 M ArgHCl, 0.05% Tween 20). The sheets were incubated for 1-2 hours, followed by washing five times with washing buffer. […] The fluorescence intensity were measured and transformed into digits that were exported to Prism 5 (Graph Pad Software, USA) for further analysis.

[2] = target: T2, Peptide no. 16 (Figures 7A, 7B) (also: N-terminus acylated); assay: as above
T2 construct: peptide array on cellulose
T2 peptide: DHYTLRKISSLANSFLTIK
Description: as §1, §2

[3] = target: T3, Peptide no. 2 (Figures 7A, 7B) (N-terminus acylated); assay: as above
T3 construct: peptide array on cellulose
T3 peptide: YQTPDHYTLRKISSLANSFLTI
Description: as §1, §2

[4] = target: T4, Peptide no. 1 (Figures 7A, 7B) (N-terminus acylated); assay: as above
T4 construct: peptide array on cellulose
T4 peptide: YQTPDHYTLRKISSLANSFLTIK
Description: as §1, §2

[5] = target: T5, Peptide no. 17 (Figures 7A, 7B) (also: N-terminus acylated); assay: as above
T5 construct: peptide array on cellulose
T5 peptide: HYTLRKISSLANSFLTIK
Description: as §1, §2

[6] = target: T6, Peptide no. 6 (Figures 7A, 7B) (also: N-terminus acylated); assay: as above
T6 construct: peptide array on cellulose
T6 peptide: YQTPDHYTLRKISSLANS
Description: as §1, §2

[7] = target: T7, Peptide no. 5 (Figures 7A, 7B) (also: N-terminus acylated); assay: as above
T7 construct: peptide array on cellulose
T7 peptide: YQTPDHYTLRKISSLANSF
Description: as §1, §2

[8] = target: T8, Peptide no. 7 (Figures 7A, 7B) (also: N-terminus acylated); assay: as above
T8 construct: peptide array on cellulose
T8 peptide: YQTPDHYTLRKISSLAN
Description: as §1, §2

[9] = target: T9, Peptide no. 14 (Figures 7A, 7B) (N-terminus acylated); assay: as above
T9 construct: peptide array on cellulose
T9 peptide: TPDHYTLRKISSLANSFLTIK
Description: as §1, §2

[10] = target: T10, Peptide no. 42 (Figure 8A); assay: Ala-scan peptide array of hIL20 74-96 on cellulose; fluorescein-labelled antibody; fluorescence as OD
T10 construct: Ala-scan peptide on the array; also called Peptide no; T76A
T10 peptide: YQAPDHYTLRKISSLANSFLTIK
Description: as §1, §2

[11] = target: T11, Peptide no. 60 (Figure 8A); assay: as above
T11 construct: Ala-scan peptide on the array; also called Peptide no; I95A
T11 peptide: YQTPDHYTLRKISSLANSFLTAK
Description: as §1, §2

[12] = target: T12, Peptide no. 53 (Figure 8A); assay: as above
T12 construct: Ala-scan peptide on the array; also called Peptide no; S87A
T12 peptide: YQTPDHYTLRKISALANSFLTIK
Description: as §1, §2

[13] = target: T13, Peptide no. 57 (Figure 8A); assay: as above
T13 construct: Ala-scan peptide on the array; also called Peptide no; F92A
T13 peptide: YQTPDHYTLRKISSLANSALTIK
Description: as §1, §2

[14] = target: T14, Peptide no. 52 (Figure 8A); assay: as above
T14 construct: Ala-scan peptide on the array; also called Peptide no; S86A
T14 peptide: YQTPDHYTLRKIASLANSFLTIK
Description: as §1, §2

[15] = target: T15, Peptide no. 50 (Figure 8A); assay: as above
T15 construct: Ala-scan peptide on the array; also called Peptide no; K84A
T15 peptide: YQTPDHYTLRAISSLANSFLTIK
Description: as §1, §2

[16] = target: T16, Peptide no. 59 (Figure 8A); assay: as above
T16 construct: Ala-scan peptide on the array; also called Peptide no; T94A
T16 peptide: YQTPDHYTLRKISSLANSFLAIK
Description: as §1, §2

[17] = target: T17, Peptide no. 51 (Figure 8A); assay: as above
T17 construct: Ala-scan peptide on the array; also called Peptide no; I85A
T17 peptide: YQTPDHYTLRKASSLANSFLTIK
Description: as §1, §2

[18] = target: T18, Peptide no. 41 (Figure 8A); assay: as above
T18 construct: Ala-scan peptide on the array; also called Peptide no; Q75A
T18 peptide: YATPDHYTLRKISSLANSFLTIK
Description: as §1, §2

[19] = target: T19, Peptide no. 43 (Figure 8A); assay: as above
T19 construct: Ala-scan peptide on the array; also called Peptide no; P77A
T19 peptide: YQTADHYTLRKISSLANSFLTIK
Description: as §1, §2

[20] = target: T20, Peptide no. 46 (Figure 8A); assay: as above
T20 construct: Ala-scan peptide on the array; also called Peptide no; Y80A
T20 peptide: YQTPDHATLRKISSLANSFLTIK
Description: as §1, §2

[21] = target: T21, Peptide no. 54 (Figure 8A); assay: as above
T21 construct: Ala-scan peptide on the array; also called Peptide no; L88A
T21 peptide: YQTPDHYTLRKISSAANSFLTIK
Description: as §1, §2

[22] = target: T22, Peptide no. 58 (Figure 8A); assay: as above
T22 construct: Ala-scan peptide on the array; also called Peptide no; L93A
T22 peptide: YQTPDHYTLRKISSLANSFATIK
Description: as §1, §2

Measured: binding result

B1: human anti-hIL20 monoclonal antibody 15D2 (antibody, V domains shown)
VH: QVQLVQSGAEVKRPGASVKVSCKASGYTFTNDIIHWVRQAPGQRLEWMGWINAGYGNTQYSQNFQDRVSITRDTSASTAYMELISLRSEDTAVYYCAREPLWFGESSPHDYYGMDVWGQGTTVTVSS
VL: AIQLTQSPSSLSASVGDRVTITCRASQGISSALAWYQQKPGKAPKLLIYDASSLESGVPSRFSGSGSGTDFTLTISSLQPEDFATYYCQQFNSYPLTFGGGTKVEIKR
notes: also called 15D2-wt; 15D2 wild-type
binds: [1] | [2] | [3] | [4] | [5] | [6] | [7] | [8] | [9]

B2: human anti-hIL20 monoclonal antibody 5B7 (antibody, human IgG4, V domains shown)
VH: B1 VH with T30S, N31S, D32H, I34M, Q59K, S69T, S106L
VL: B1 VL
notes: described as human IgG4; also called 5B7-wt
binds: [10] | [11] | [12] | [13] | [14] | [15] | [16] | [17] | [18] | [19] | [20] | [21] | [22]
